This data set relates to ATP. As to the kind of experiment: switch fluorescence ratio, 500 uM ATP over buffer (Cy3 cluster intensity, sum of 5 cycles each) (fold (ratio)); higher = stronger signal-on switching upon ATP binding; sequences stand for … in TCGTCGGCAGCGTCAGATGTGTATAAGAGACAGTTTTTTTTTTTTTTTTTTTTTTTTT…TC. To be noted: aptamer strand: ATP DNA aptamer (quencher-CACCTGGGGGAGTATTGCGGAGGAAGG + anchor), 100 nM annealed; ATP concentration: 500 uM. The gist of the method: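 Cy3-labelled switching-strand clusters on a modified Illumina MiSeq flow-cell were annealed to 100 nM quencher-labelled ATP aptamer and imaged first in selection buffer, then after 15 min with 500 uM ATP at 22 °C. NaOH stripping and re-annealing separated each of five buffer/ATP cycles, and clusters outside 100-1000 RFU were excluded. The fluorescence ratio sums target-cycle Cy3 intensity over buffer-cycle Cy3 intensity per cluster and averages it per switch-domain sequence.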

In the supplement of paper PMC10126150 one finds switch fluorescence ratio data, which are given here for 78 sequences.

± gives the standard deviation of the averaged measurements.
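Also: ATP exposure 15 min at 22 °C before imaging.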

TTCTGAGTCT: the switch fluorescence ratio was determined as 1.02 ± 0.041.

Consider GTTGTGTCTT, for which the switch fluorescence ratio amounted to 0.991 ± 0.041.

With GAATGGCCAG, the switch fluorescence ratio worked out at 0.992 ± 0.034.

As for GGAATGTGTT, the switch fluorescence ratio stood at 0.972 ± 0.013.

CTGTGGTATT: the switch fluorescence ratio turned out to be 0.985 ± 0.018.

TGTAATGCCC: the switch fluorescence ratio is 0.991 ± 0.02.

In the case of GAGGGACTGG, the switch fluorescence ratio stood at 0.988 ± 0.084.

Consider GGAGGGGGAC, for which the switch fluorescence ratio is 3.13 ± 3.1.

Turning to TTCTGAAAAC, the switch fluorescence ratio was determined as 1.0127 ± 0.00023.

As to TGTCGGGGGG, the switch fluorescence ratio is 1.01 ± 0.028.

Consider CAGAGACTTT, for which the switch fluorescence ratio came out at 0.994 ± 0.012.

Regarding CGCCACTGTG, the switch fluorescence ratio amounted to 1.06 ± 0.044.

With CGTGTTTTCC, the switch fluorescence ratio came out at 1.022 ± 0.0015.

In the case of TAAGGTTGAC, the switch fluorescence ratio was found to be 0.9953 ± 0.0035.

GGGAAATTAT: the switch fluorescence ratio worked out at 0.9917 ± 0.0045.

For GAGGCGCTTA, the switch fluorescence ratio amounted to 0.961 ± 0.011.

For AGAAGTTGCG, the switch fluorescence ratio stood at 0.986 ± 0.0083.

TAAGTAAAAT: the switch fluorescence ratio stood at 0.9968 ± 0.0089.

On to CCAGGAGGAG, for which the switch fluorescence ratio was determined as 1 ± 0.027.

On to CACGGGGTCC, for which the switch fluorescence ratio amounted to 1.06 ± 0.069.

In the case of AGCCATTTTG, the switch fluorescence ratio came to 1.02 ± 0.022.

For AGTTTGGTCC, the switch fluorescence ratio is 0.997 ± 0.035.

Consider TTGGGGAGAC, for which the switch fluorescence ratio was 1.07 ± 0.061.

For GGTTACTAAG, the switch fluorescence ratio amounted to 1.01 ± 0.017.

For the sequence ACTTGACGTG, the switch fluorescence ratio worked out at 1.01 ± 0.059.

In the case of ATGCAGGTGT, the switch fluorescence ratio stood at 1.23 ± 0.014.

Consider ATTGAGTCAC, for which the switch fluorescence ratio worked out at 0.991 ± 0.016.

For GGGAAGGGGC, the switch fluorescence ratio turned out to be 1.02 ± 0.018.

GGTGTGGGGC: the switch fluorescence ratio was 1.01 ± 0.024.

On to TATAAAGGGG, for which the switch fluorescence ratio came out at 1 ± 0.025.

For TGAGTACCGG, the switch fluorescence ratio came out at 1.08 ± 0.1.

As to TATATTGAAC, the switch fluorescence ratio is 1.022 ± 0.0028.

For the sequence ATAAAATATT, the switch fluorescence ratio is 0.998 ± 0.022.

In the case of GGATCACACT, the switch fluorescence ratio is 1.02 ± 0.012.

Consider ATTGAATTCT, for which the switch fluorescence ratio was determined as 1.02 ± 0.14.

Turning to TAATTAAATT, the switch fluorescence ratio amounted to 0.9767 ± 0.0046.

With ATAACCGCGG, the switch fluorescence ratio turned out to be 0.994 ± 0.025.

For the sequence CCCATTGTAA, the switch fluorescence ratio was 1.04 ± 0.025.

On to CATGGGGTGC, for which the switch fluorescence ratio amounted to 1.04 ± 0.024.

Regarding TTGGGCTTGA, the switch fluorescence ratio stood at 1.01 ± 0.056.

As for TAAAGCGGTG, the switch fluorescence ratio was 0.992 ± 0.027.

In the case of TTTTATCACT, the switch fluorescence ratio was determined as 1.03 ± 0.034.

Take GGGGTCATTT: the switch fluorescence ratio came out at 0.979 ± 0.027.

Consider GATTCGCTAA, for which the switch fluorescence ratio was determined as 1.12 ± 0.13.

As for TTTCACACGT, the switch fluorescence ratio was found to be 1.02 ± 0.024.

On to CAAAGGAAGC, for which the switch fluorescence ratio came out at 1.02 ± 0.05.

Take ATTATTGGTC: the switch fluorescence ratio was found to be 0.99 ± 0.029.

As to ATTGGACCAT, the switch fluorescence ratio worked out at 0.976 ± 0.036.

As for TTTTGGAATA, the switch fluorescence ratio came to 1.02 ± 0.059.

For CGTACAGCAG, the switch fluorescence ratio stood at 1.01 ± 0.054.

As to TCGGAGAGGG, the switch fluorescence ratio came out at 0.974 ± 0.037.

Consider GGGAGGAGGT, for which the switch fluorescence ratio turned out to be 0.98 ± 0.024.

As for CAGATAGGTG, the switch fluorescence ratio was found to be 1.15 ± 0.089.

Turning to TTAGATGGAG, the switch fluorescence ratio was found to be 0.984 ± 0.024.

With TCGGCTTGGG, the switch fluorescence ratio amounted to 0.987 ± 0.02.

ATTGAAAGCA: the switch fluorescence ratio turned out to be 1.03 ± 0.025.

As to GGATTATGGC, the switch fluorescence ratio was 0.943 ± 0.061.

Turning to ATCGAAAGGG, the switch fluorescence ratio was found to be 1.01 ± 0.054.

Consider GGAAGGTTCG, for which the switch fluorescence ratio stood at 1.01 ± 0.033.

Take TTTATAGAAA: the switch fluorescence ratio amounted to 1.05 ± 0.02.

Take GCAGTTGGGG: the switch fluorescence ratio stood at 0.998 ± 0.032.

On to GGGGTTTACA, for which the switch fluorescence ratio was 0.989 ± 0.026.

CGTTTAGCGT: the switch fluorescence ratio is 1 ± 0.0018.

For GTGCAAGGGT, the switch fluorescence ratio stood at 1.01 ± 0.029.

Turning to CATGCGCGGA, the switch fluorescence ratio was found to be 1.147 ± 0.0013.

With GCTCTGTTTT, the switch fluorescence ratio came to 1 ± 0.011.

For GTAACGGGGA, the switch fluorescence ratio was 0.995 ± 0.072.

Consider CAGTGGGTGG, for which the switch fluorescence ratio is 0.982 ± 0.027.

As for ATAGTGGGTC, the switch fluorescence ratio amounted to 1.04 ± 0.025.

For the sequence TGGGTCTTTT, the switch fluorescence ratio worked out at 1.01 ± 0.054.

For CTGAGGAGAC, the switch fluorescence ratio worked out at 1.05 ± 0.042.

For the sequence TTTTATAGCA, the switch fluorescence ratio turned out to be 1.02 ± 0.059.

In the case of CTTATTTGGG, the switch fluorescence ratio was found to be 0.997 ± 0.031.

For the sequence AGTGAAAATG, the switch fluorescence ratio was found to be 1.05 ± 0.029.

For the sequence TACGTAACAG, the switch fluorescence ratio came out at 1.24 ± 0.064.

As to AGGGTTTTTG, the switch fluorescence ratio came out at 0.994 ± 0.016.

With TGGGGGTAAG, the switch fluorescence ratio stood at 0.989 ± 0.03.

Consider CCGATAGATG, for which the switch fluorescence ratio was 1.065 ± 0.0047.
